The values that follow are results of earlier work, collected in doi:10.1101/2023.01.28.526057v3 (bioRxiv, 2023).

For the series the following is noted: rat modeling parameter, Table S7, column PBS.

In the case of liraglutide, the “t1/2 in SC” value was 57.02 s.
